Measured values reported in doi:10.1101/2025.03.06.641827 (bioRxiv, 2025).
Changes are numbered by the printed parent chain. Names and notes keep the numbering of the source.

What was measured:
[1] = molecular target: the molecule itself; experiment: crystal structure
[2] = molecular target: the molecule itself; experiment: SEC
[3] = molecular target: the molecule itself; experiment: crystal structure; remark: listed apart in the source

B1: Escherichia coli threonine dehydratase (IlvA), full length, His-tagged (enzyme, UniProt P04968 1-514, looked up)
chain: MADSQPLSGAPEGAEYLRAVLRAPVYEAAQVTPLQKMEKLSSRLDNVILVKREDRQPVHSFKLRGAYAMMAGLTEEQKAHGVITASAGNHAQGVAFSSARLGVKALIVMPTATADIKVDAVRGFGGEVLLHGANFDEAKAKAIELSQQQGFTWVPPFDHPMVIAGQGTLALELLQQDAHLDRVFVPVGGGGLAAGVAVLIKQLMPQIKVIAVEAEDSACLKAALDAGHPVDLPRVGLFAEGVAVKRIGDETFRLCQEYLDDIITVDSDAICAAMKDLFEDVRAVAEPSGALALAGMKKYIALHNIRGERLAHILSGANVNFHGLRYVSERCELGEQREALLAVTIPEEKGSFLKFCQLLGGRSVTEFNYRFADAKNACIFVGVRLSRGLEERKEILQMLNDGGYSVVDLSDDEMAKLHVRYMVGGRPSHPLQERLYSFEFPESPGALLRFLNTLGTYWNISLFHYRSHGTDYGRVLAAFELGDHEPDFETRLNELGYDCHDETNNPAFRFFLAG
modifications: PLP covalently bound to Lys62
stoichiometry N [1]: 4

B2: Staphylococcus aureus IlvA regulatory domain (residues 336-422) (domain or fragment, UniProt Q2FF63 336-422, looked up)
chain: EMKHYFILNFPQRPGALREFVNDVLGPQDDITKFEYLKKSSQNTGTVIIGIQLKDHDDLIQLKQRVNHFDPSNIYINENKMLYSLLI
stoichiometry N [2]: 4

B3: Escherichia coli IlvA regulatory domain (amino acids 335-514) (domain or fragment, UniProt P04968 335-514, looked up)
chain: EQREALLAVTIPEEKGSFLKFCQLLGGRSVTEFNYRFADAKNACIFVGVRLSRGLEERKEILQMLNDGGYSVVDLSDDEMAKLHVRYMVGGRPSHPLQERLYSFEFPESPGALLRFLNTLGTYWNISLFHYRSHGTDYGRVLAAFELGDHEPDFETRLNELGYDCHDETNNPAFRFFLAG
stoichiometry N [2]: 2

B4: Escherichia coli IlvA regulatory domain (335-514) F352A mutant (domain or fragment, UniProt P04968 335-514, looked up)
chain: B3 chain with F18A
stoichiometry N [3]: 2

B5: Staphylococcus aureus threonine dehydratase (IlvA), full length (residues 1-422) (enzyme, UniProt Q2FF63 1-422, looked up)
chain: MTVKTTVSTKDIDEAFLRLKDIVKETPLQLDHYLSQKYDCKVYLKREDLQWVRSFKLRGAYNAISVLSDEAKSKGITCASAGNHAQGVAYTAKKLNLNAVIFMPVTTPLQKVNQVKFFGNSNVEVVLTGDTFDHCLAEALTYTSEHQMNFIDPFNNVHTISGQGTLAKEMLEQAKSDNVNFDYLFAAIGGGGLISGISTYFKTYSPTTKIIGVEPSGASSMYESVVVNNQVVTLPNIDKFVDGASVARVGDITFEIAKENVDDYVQVDEGAVCSTILDMYSKQAIVAEPAGALSVSALENYKDHIKGKTVVCVISGGNNDINRMKEIEERSLLYEEMKHYFILNFPQRPGALREFVNDVLGPQDDITKFEYLKKSSQNTGTVIIGIQLKDHDDLIQLKQRVNHFDPSNIYINENKMLYSLLI
stoichiometry N [2]: 8
